We go through five substances from patent publication US20190250145A1.

Test [1] addresses endogenous β-subunit of mouse heart (CaVβ) (mouse) (UniProt Q8CC27). Briefly: cell-based or functional assay.
The target in test [2] is endogenous β subunits of guinea pig ventricular cardiomyocytes (guinea pig). Briefly: cell-based or functional assay.
The target of test [3] is I-IIC-CFluc (carboxyl terminal portion of luciferase attached to I-IIC domain of CaV1.2) [luciferase: P08659]. Briefly: split firefly luciferase complementation in HEK cells.
Test [4] deals with GKC-CFluc (carboxyl terminal portion of luciferase attached to GKC) [luciferase: P08659]. Described as above.
Sequence of GKC-CFluc (carboxyl terminal portion of luciferase attached to GKC) [luciferase: P08659] (P08659 398-550): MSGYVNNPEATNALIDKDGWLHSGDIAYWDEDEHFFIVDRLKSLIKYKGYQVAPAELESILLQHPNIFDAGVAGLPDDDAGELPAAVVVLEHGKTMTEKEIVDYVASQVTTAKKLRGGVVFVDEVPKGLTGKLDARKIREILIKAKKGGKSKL

Sequence of NFluc-NSH3 (amino terminal portion of luciferase attached to NSH3) (P08659 1-416): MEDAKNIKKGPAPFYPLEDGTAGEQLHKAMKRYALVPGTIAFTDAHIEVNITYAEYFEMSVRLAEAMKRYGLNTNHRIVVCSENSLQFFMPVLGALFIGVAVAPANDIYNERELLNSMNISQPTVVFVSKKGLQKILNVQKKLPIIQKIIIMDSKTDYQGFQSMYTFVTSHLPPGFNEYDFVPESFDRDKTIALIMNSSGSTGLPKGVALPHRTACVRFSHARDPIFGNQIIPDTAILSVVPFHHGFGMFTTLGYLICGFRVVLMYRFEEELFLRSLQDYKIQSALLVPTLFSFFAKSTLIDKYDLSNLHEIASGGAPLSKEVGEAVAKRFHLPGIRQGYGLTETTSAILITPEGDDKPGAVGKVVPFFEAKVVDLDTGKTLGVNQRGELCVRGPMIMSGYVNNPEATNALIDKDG
Sequence of I-IIC-CFluc (carboxyl terminal portion of luciferase attached to I-IIC domain of CaV1.2) [luciferase: P08659] (P08659 398-550): as the sequence (P08659 398-550) above
Sequence of CaVB-NFluc (amino terminal portion of luciferase attached to CaVB) (P08659 2-416): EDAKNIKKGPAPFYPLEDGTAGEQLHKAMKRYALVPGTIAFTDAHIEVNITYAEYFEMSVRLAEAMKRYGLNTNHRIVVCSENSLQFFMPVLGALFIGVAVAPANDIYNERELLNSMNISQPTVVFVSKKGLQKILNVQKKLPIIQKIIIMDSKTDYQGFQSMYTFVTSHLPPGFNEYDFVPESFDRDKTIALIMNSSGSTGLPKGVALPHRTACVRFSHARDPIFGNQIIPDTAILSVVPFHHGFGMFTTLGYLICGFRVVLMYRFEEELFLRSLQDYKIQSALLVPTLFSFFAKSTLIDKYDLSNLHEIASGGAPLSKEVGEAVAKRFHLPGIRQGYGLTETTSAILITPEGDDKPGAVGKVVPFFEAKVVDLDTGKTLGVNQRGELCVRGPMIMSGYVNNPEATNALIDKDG

On to “N-terminal 3×FLAG-tagged dihydropyridine (DHP)-resistant (T1066Y/Q1070M) AID-mutant rabbit α1C (from UniProt P15381 1-2171)”, for which, in test [1], the increase in cardiac contractility by 200 nM isoproterenol (Langendorff hearts, nisoldipine present) was 1.2 fold; the increase in contractility in response to isoproterenol (isolated hearts, nisoldipine present) fell in the range of 0 to 25%; the increase in fractional shortening by isoproterenol (cardiomyocytes, nisoldipine present) was determined as 25%.
In test [1], “pseudo-wild-type (pWT) α1C: transgenic FLAG-tagged DHP-resistant α1C subunit with wild-type AID (from UniProt P15381 1-2171)” registered an increase in cardiac contractility by 200 nM isoproterenol (Langendorff hearts, nisoldipine present) of 3.3 fold; an increase in fractional shortening by isoproterenol (cardiomyocytes, nisoldipine present) of 100%; an increase of Ca2+ current by forskolin of 1.8 fold; an increase of nisoldipine-insensitive current by 200 nM isoproterenol of 1.9 fold. Moreover, in test [1], the shift of Vmid in the hyperpolarizing direction by 200 nM isoproterenol amounted to 4.4 mV.
In the case of YFP-tagged mutant (YWI/AAA) AID peptide, the increase in whole-cell current amplitude by 1 µM forskolin in test [2] was in the range of 4 to 5 fold.
Substance “CaVB-NFluc (amino terminal portion of luciferase attached to CaVB) (from UniProt P08659 2-416)” displayed a bioluminescence signal, fold over negative control in test [3] of 15 fold.
For “NFluc-NSH3 (amino terminal portion of luciferase attached to NSH3) (from UniProt P08659 1-416)”, the bioluminescence, fold over negative control cells in test [4] is 70 fold.
